experiment: yeast display, Sf9 membrane polyspecificity reagent, FACS + sequencing; frameworks hold sequencing errors
Outline: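 Nanobodies came from a synthetic yeast display library in Saccharomyces cerevisiae BJ5465, induced with galactose for 36–48 hours and stained for 1 hour at 4 °C with 10% biotinylated, detergent-solubilized Sf9 membrane reagent. Cells were enriched on streptavidin microbeads and then FACS-sorted, with low and high (top ~1%) gates set on anti-HA fluorescence for expression and streptavidin fluorescence for reagent binding. Each polyreactivity label reflects the gate a clone came from. Genes were amplified by colony PCR, sequenced by MiSeq 2 × 250 and filtered by CDR length.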

Row | Sequence | polyreactivity (PSR sort gate)
1 | QVQLVESGGGLVQAGGSLRLSCAASGNTFVLYAMGWYRQAPGKERELVAAINNGGSTYADSVKGRFTISRDNAKNTVYLQMNSLKPEDTAVYYCAARYQVGVYWRRYYWGQGTQVTVSS | high polyreactivity
2 | QVQLVESGGGLVQPGGSLRLSCAASGSTFSGYTMGWYRQAPGKERELVASISSGVSTYYADSVKGRFTISRDNAKNTVYLQMNSLKPEDTAVYYCAADSVGDYGYQVYASWGYEDEYWGQGTQVTVSS | low polyreactivity
3 | QVHLVESGGGLDQAGGSLRLICPASGLIFYRYAMGWYRQAPGKERELVAAITTNGARTYYADSVKGRFTISRDNAKNTVYLQMNSLIPEDTAVYYCAGYGAGKFWAEHNYWGQGTQVTVSS | high polyreactivity
4 | QVQLEESGGGLVQAGGSLRLSCADSGRTFRFYTIGWYRQAPGKERELVASISWGGTSTYYADSVKGRFTISRDNANNTVYLQMISLKPEDTAVYSCAAPRWVEGFRFDYWGQGTQVTVSS | high polyreactivity
5 | QVQLVESGGGLVQAGGSLRLSCAASGRTFTSYGMGWYRPEPGKERELVAAITRSTGGTYYADSVKGRFTISRDHAKNTVYLQMNSLKPEDTAVYYCNTGPLYSPFDYWGQGTQVTVSS | low polyreactivity
6 | QVQLVESGGGLVQAGGSLRLSCAASGRILWSYAMGWYRQAPGKERELVAAITSGTRTNYADSVKGRFTISRDNAKNTVYLQMNSLKPEDTAVYYCAADRYWPAFYRTRGWDYYYWGQGTQVTVSS | high polyreactivity
7 | QVQLVESGGGLVQAGGSLRLSCAASGRTFYRNAMGWYRQAPGKERELVATITRRGGSTYYADSVKGRFTISRDNAKNTVYLQMNSLKPEDTAVYYCAAGSKDLYRPYDYWGQGTQVTVSS | high polyreactivity
8 | QVQLGESGGGLVQAGGSLRLSCAASGFIFCYYAMGWYRQAPVKERELVAAITSGGRTYYSESVKGRFTISLDNAKNTFYLQMNSMKPEDTSVYYCNVVLRSVVSGDYWGQGTQVTVSS | high polyreactivity
9 | QVQLVESGGGLVQAGGSLRLSCAASGFTFGGYAMGWYRQAPGKERELVAAISKSGGRTYYADSVKGRFTISRDNAKNTVYLQMNSLKPEDTAVYYCAASTIWHYDSWGQGTQVTVSS | high polyreactivity
10 | QVQLVESGGGLVQAGGSLRLSCAASGITVWIYAMGWYRQAPGKERELVAAITGRGGSTYYADSVKGRFTISRDKAKNTLYLQRNSLKPEDTAVYYCAAESWYSTYDYWGQGTQVTVSS | high polyreactivity
11 | QDQLVESGGGLDQAGCTLRLSCAASVGTFRYYAMGWYRQAPGKERELVASISSGGSTNYADSVKGRFTISRDNAKNTVYLQMNSLKPEDTAVYYCNADPRRPVTSYDYWGQGTQVTVSS | low polyreactivity
12 | QVQLVESGGGLVQAGGSLRLSCAASGGIFADYAMGWYRQAPGKERELVADISARGGSTYNADSVKGRFTISRDNAKNTVYLQMNSLKPEDTAVYYCATDGPGYPPTLRYDYWGQGTQVTVSS | low polyreactivity
13 | QVQLVESGGGIVQAGGSLRLSCAASGSIFHGYAMGWYRQAPGKERELVASITWNGGSTYYADSVKGRFTISRDNAKNTVYLQMNSLKPEDTAVYYCATSKWRGRGRTYDYWGQGTQVTVSS | high polyreactivity
14 | QVQLVESGGGLVQAGGSLRLSCAASGRIFITNAMGWYRQAPGKERELVAAIRRRGGNTYYADSVKGRFTISRDNANNTVYLQINSLKPEDTAVYYCAVYPRPYKYNYWGQGTQVTVSS | high polyreactivity
15 | QVQLVESGGGLVQAGGSLRLSCAASGSIFSPYAMGWYRQAPGKERELVDAISFRASTTYYADSVKGRFTISRDNAKNTVYLQMNSLKPEDTAVYYCAASPLYSWFWGLYDYWGQGTQVTVSS | low polyreactivity
16 | QVQLVESGGGLVQAGGSLRLSCAASGRIVANAMGWYRQAPGKERELVAAISWSGGRTFYADSVKGRFTISRDNAKNTVYLQMNSLKPEDSAVYYCNARGPVYARYDYCGQGTQVTVSS | low polyreactivity

Row | Sequence | polyreactivity (PSR sort gate)
17 | QVQLVESGGGLVQAGGSLRLSCAASGIIFRGYAMGWYRQAPGKERELVAGITSGGRTYYADSVKGRFTISRDNAKNTVYLQMNSLKPEDTAVYYCNADAYGDDWKIYDYWGQGTQVTVSS | low polyreactivity
18 | QVQLVESGGGLVQAGGSLRLSCAASGSIFVYNAMGWYRQAPGKEREWVAGITFIGGSTYYADSVKGRFTISRDNEKNTVYLQMNSLKPEDTAFYYCATDLPGGRYYGPYDYWGQGTQVTVSS | low polyreactivity
19 | QGQLVDSGGGLVQAGGSLRLSCAASGFTVTRYAMGWYRTATGKERELVAAISWNSGSTYYADSVKGRFTISRDNAKNTVYLQMNSLKPEDTAVYYCAARDDQGYCYWGQGTQVTVSS | high polyreactivity
20 | QVQLVESGGGLVQAGGSLRLSCAASGFIFYRYAMGWYRQAPGKERELVAAISRSGGTTYYADSVKGRFTISRDNAKNTVYLQMNSLKPEDTAVYYCNVKRGTIGGYYYWGQGTQVTVSS | high polyreactivity
21 | QVQLVESGGGLVQAGGSLRLSCAASGRTFSDYAMGWYRQAPGKERELVAAITSSSGTTYYADSVKGRFTISRDNAKNTVYFQMNSLKPEDTAVYYCAAGHPYSLSERYNYWGQGTQVTVSS | low polyreactivity
22 | QVQLVESGGGLVQAGGSLRLSCAASGFIFRDNAMGWYRQAHGKERELVASIRSSGGRTYYADSVKGRFTISRDNAKNTVYLQMNSLKPEDTAVYYCARRWYPVTPYARMYYWGQGTQVTVSS | low polyreactivity
23 | QVQHVESGGGLVQAGGSNRLSCASSGSTFPGNAMGWYRQAPGKERELVARINDGADTNYADSVKGRFTISRDNAKNTVFLQMNSLKPEDTAVYYCAKPFYDGRTHFVSWGQGTQVTVSS | low polyreactivity
24 | QVQLVESGGGLVQAGGSLRLSCAASGFTFARNAMGWYRQAPGKERELVAGITSRGSSTSYADSVKGRFTISRDNAKNTVYLQMNSLKPEDTAVYYCAAVPRYRDRGQYGYWGQGTQVTVSS | high polyreactivity
25 | QVQLVESGGGLVQAGGSLRLSCAASGPTFQIYAMGSYRQAPGNERELDAAIRWRGGTTYYADSVKGRFTISRDNAKNTVYLQMNSLTPEDTAVYYCAADYYWSPYYVYQFDYWGQGTQVTVSS | low polyreactivity
26 | QVQLVESGGGLVQAGGSLRLSCAASGLTFFWNAMGWYRQAPGKERELVAAISYSGGSTSYADSVKGRFTISRDNAKNSVYLQMNSLKPEDTAVYYCAAEYWYGPSKGDYWGQGTQVTVSS | high polyreactivity
27 | QVQLVESGGGLVQAGGSLRLSCAASGRTFQDNAMGWYRQAPGKERELVAAIRDNGGSTYYADSVKGRFTISRDNAKNTVYLQMNSLKPEDTAVYYCAADQGTGSYDYWGQGTQVTVSS | low polyreactivity
28 | QVQLVESGGGLVQAGGSLRLSCAASGYIFVIYAMGWYRQAPGKERELVAAISWGGGSTYYADSVKGRFTISRDNAKNTVYLQMNSLKPEATAVYYCAARGWVVGRISVPGEYWGQGTQVTVSS | high polyreactivity
29 | QDQLVESGGGLVQAGGSLRLSCAASGSIFWGYDMGWYRQAPGKEMELVARISYSGGSTSYADSVKGRFTISRDNAKNTVYLQMNSLKPEDTAVYYCAADEGGFWWTYPYDSWGQGTQVTVSS | low polyreactivity
30 | QVQLVESGGGLVQAGGSLRLSCAASGGIFQENAMGWYRPAPGKERELVATITRSTGSTYYADSVKGRFTISRDNAKNTVYLQMNSLKPEDTAVYYCAARRRSQYYRYAYKYDYWGQGTQVTVSS | high polyreactivity
31 | QVQLVESGGGLVQAGGSLRLSSAASGSTFAYYAMGWYRQEPAKEGELVASISWRGGSTYYADSVKGRFTISRDNAKNTVYLQMNSLKPEDTAVYYCAARSTYRPWLLSAYGYWGQGTQVTVSS | low polyreactivity
32 | QVQLVESGGGLVQAGGGLRLSSAASGTFKRNAVGWYRQAPGKERELVATITRTGSTTYADSVKGRFTISRDNAMNTVYLQMNSLKPEDTAVYYCAAGYPPEDPEDYWGQGTQVTVSS | low polyreactivity
